According to patent publication US10653613B2, “Compositions comprising lysozyme hydrolysate for use in keratin-containing tissue” (DSM IP ASSETS B.V., priority 2013, dated 2020):

Columns and labels:
[1] = human, in vivo
Method: (§1) Lysozyme is rich in Trp. […] A product data sheet is attached as FIG. 6. Study Procedures
(§2) Washout periods between treatments were at least three days. […] The study was composed of four visits.
(§3) They then ingested one of the experimental drinks.
(§4) Fluorescence-based detection is employed.
(§5) • For Trp and LNAA determination in the blood: Approx. […] After mixing, 2 μl was injected on the column. Statistical Considerations Descriptive Statistics

[2] = Clinical trial: plasma Trp/LNAA ratio kinetics after a single drink; format: in vivo, humans
Method: as §1, §2, §3, §4, §5
Plasma samples from each time point have been analysed for levels of Trp and LNAA, i.e. the sum of Val, Ile, Leu, Tyr, and Phe. The resulting Trp/LNAA ratio was plotted against time post consumption of the intervention product.

## intact lysozyme: A hen egg-derived protein rich in Trp; naturally occurring food protein that has not been altered
[1]
  Cysteine AUC (average): 999.7
  Cystine AUC (average): 10726.7
  Glutathione AUC (average): 255.7
[2]; FIG. 2, comparison of the three treatments
  Shape of the plasma Trp/LNAA ratio increase over time (in words): much slower increase
[2]; plasma, 0-240 min after single drink, healthy volunteers, baseline AUC subtracted
  dAUC (baseline-corrected AUC of Trp/LNAA ratios), mean: 7.3
